According to patent US20230159631A1 (ME THERAPEUTICS, published 2023):

T1: recombinant human G-CSF (Genscript) (human, UniProt P09919-2 31-204, limits assumed)
T1 construct: also called hG-CSF; granulocyte colony stimulating factor
T1 sequence (looked up): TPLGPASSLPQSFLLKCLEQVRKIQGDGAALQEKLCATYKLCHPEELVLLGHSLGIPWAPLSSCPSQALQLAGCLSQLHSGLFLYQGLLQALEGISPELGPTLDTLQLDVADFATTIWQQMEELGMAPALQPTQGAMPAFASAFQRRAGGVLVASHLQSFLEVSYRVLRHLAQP


How the values were obtained:
[1] = molecular target: T1, recombinant human G-CSF (Genscript); assay: SPR (ProteOn), supernatant captured on anti-mouse Fc, human G-CSF analyte, injection #1
Procedure: (§1) Affinities of clones 2F6, 1B11, 3G5, 10B9, 9B7, 10G1, and 3B3 were measured by SPR. The work was carried out at the National Research Council of Canada (Montreal, Quebec).
(§2) 2.5% supernatants (except variants 1B11.2 and 10B9.1.2 used 4%) were captured on an anti-mouse Fc antibody, flowed with a 30, 10, 3.33, 1.11, and 0.37 nM concentration series of human G-CSF with buffer blank. Association (ka) and dissociation (kd) rates were measured using a BioRad ProteOn™ instrument. Affinity (KD) was calculated as […].

[2] = molecular target: T1, recombinant human G-CSF (Genscript); assay: SPR (ProteOn), supernatant captured on anti-mouse Fc, human G-CSF analyte, injection #2
Procedure: as §1, §2

[3] = molecular target: T1, recombinant human G-CSF (Genscript); assay: SPR (Antigen binding (SPR)); antibody captured on an anti-Fc surface, antigen flowed over
[4] = molecular target: T1, recombinant human G-CSF (Genscript); assay: SPR (ProteOn), supernatant captured on anti-mouse Fc, human G-CSF analyte, average of two injections
Procedure: as §1, §2

[5] = molecular target: T1, recombinant human G-CSF (Genscript); assay: SPR (Antigen binding (SPR)); antibody captured on an anti-Fc surface, antigen flowed over; column head Koff (10-4 x s-1)

Binder | Kd [1] | koff [1] | kon [1] | Kd [2] | koff [2] | kon [2] | Kd [3] | Kd [4] | koff [5]
anti-G-CSF antibody clone 1B11 (antibody, V domains shown, Mouse hybridoma monoclonal antibody; also called 1B11.2; 3A3) VH: QVHLQQSGAELARPGASVKMSCKASGYTFPIYTMHWIKQRPGQGLEWIGYINPSIGYANYNQKFRDKATLTADKSSSTAYMQLSSLTSEDSAVYYCARGGYGDSLFAYWGQGTLVTVSA VL: DIVMTQAAFSNPVTLGTSASISCRSSKSLLHSNGITYLYWYLQKPGQSPQLLIYQMSNLASGVPDRFSSSGSGTDFTLRISRVEAEDVGVYYCAQNLELPYTFGGGTKLEIK | 66.3 pM | 5.15e-05 s⁻¹ | 777000 M⁻¹ s⁻¹ | 62.2 pM | 4.72e-05 s⁻¹ | 758000 M⁻¹ s⁻¹ | 60 pM | 64 pM | 5e-05 s⁻¹
anti-G-CSF antibody clone 3B3 (antibody, V domains shown, Mouse hybridoma monoclonal antibody; also called 3B3.2; 3B2) VH: QVQLQQSGAELARPGASVKMSCKASGYTFTPYTMHWVKQRPGQDLEWIGYINPSINYTNYNQKFKDKATLTADKSSSTAYMQLSSLTSEDSAVYFCARRGSYGNFDYWGQGTTLTVSS VL: DIVMTQAAFSNPVTLGTSASISCRSNKSLLHSNGITYLYWYLQKPGQSPQLLIYQMSNLASGVPDRFSSSGSGTDFTLRISRVEAEDVGVYYCAQNLELPLTFGAGTKLELK | 329 pM | 0.000301 s⁻¹ | 914000 M⁻¹ s⁻¹ | 293 pM | 0.000286 s⁻¹ | 976000 M⁻¹ s⁻¹ | – | 310 pM | –
humanized 1B11 antibody variant 9 (h1L/h3H) (antibody, V domains shown, variable domains only; also called clone 9) VH: QVQLVQSGAEVKKPGASVKVSCKASGYTFPIYTMHWIKQAPGQGLEWIGYINPSIGYANYNQKFRDRATLTADKSTSTAYMELSSLRSEDTAVYYCARGGYGDSLFAYWGQGTLVTVSS VL: DIVMTQSPLSLPVTPGEPASISCRSSKSLLHSNGITYLYWYLQKPGQSPQLLIYQMSNLASGVPDRFSGSGSGTDFTLKISRVEAEDVGVYYCAQNLELPYTFGQGTKLEIK | – | – | – | – | – | – | 190 pM | – | 0.00017 s⁻¹
1B11 antibody variant 1 (cL/cH) (antibody, V domains shown, also called clone 1; chimeric 1B11) VH: QVHLQQSGAELARPGASVKMSCKASGYTFPIYTMHWIKQRPGQGLEWIGYINPSIGYANYNQKFRDKATLTADKSSSTAYMQLSSLTSEDSAVYYCARGGYGDSLFAYWGQGTLVTVSA VL: DIVMTQAAFSNPVTLGTSASISCRSSKSLLHSNGITYLYWYLQKPGQSPQLLIYQMSNLASGVPDRFSSSGSGTDFTLRISRVEAEDVGVYYCAQNLELPYTFGGGTKLEIK | – | – | – | – | – | – | 100 pM | – | 0.00012 s⁻¹
humanized 1B11 antibody variant 15 (h2L/h4H) (antibody, V domains shown, variable domains only; also called clone 15) VH: QVHLVQSGAEVKKPGASVKVSCKASGYTFPIYTMHWIKQAPGQGLEWIGYINPSIGYANYNQKFRDKATLTADKSTSTAYMELSSLRSEDTAVYYCARGGYGDSLFAYWGQGTLVTVSS VL: DIVMTQSPLSLPVTPGEPASISCRSSKSLLHSNGITYLYWYLQKPGQSPQLLIYQMSNLASGVPDRFSSSGSGTDFTLKISRVEAEDVGVYYCAQNLELPYTFGQGTKLEIK | – | – | – | – | – | – | 120 pM | – | 0.0001 s⁻¹

The remaining binders from weak to strong by Kd [3], led by results:

Kd [1] | koff [1] | kon [1] | Kd [2] | koff [2] | kon [2] | Kd [3] | Kd [4] | koff [5] | Binder
– | – | – | – | – | – | 290 pM | – | 0.00017 s⁻¹ | humanized 1B11 antibody variant 7 (h1L/h1H) (antibody, V domains shown, also called clone 7; Variant 7 anti-G-CSF antibody) VH: QVQLVQSGAEVKKPGASVKVSCKASGYTFPIYTMHWVRQAPGQGLEWMGYINPSIGYANYNQKFRDRVTITADTSTSTAYMELSSLRSEDTAVYYCARGGYGDSLFAYWGQGTLVTVSS VL: DIVMTQSPLSLPVTPGEPASISCRSSKSLLHSNGITYLYWYLQKPGQSPQLLIYQMSNLASGVPDRFSGSGSGTDFTLKISRVEAEDVGVYYCAQNLELPYTFGQGTKLEIK
– | – | – | – | – | – | 290 pM | – | 0.00017 s⁻¹ | humanized 1B11 antibody variant 8 (h1L/h2H) (antibody, V domains shown, variable domains only; also called clone 8) VH: QVQLVQSGAEVKKPGASVKVSCKASGYTFPIYTMHWIRQAPGQGLEWIGYINPSIGYANYNQKFRDRATLTADTSTSTAYMELSSLRSEDTAVYYCARGGYGDSLFAYWGQGTLVTVSS VL: DIVMTQSPLSLPVTPGEPASISCRSSKSLLHSNGITYLYWYLQKPGQSPQLLIYQMSNLASGVPDRFSGSGSGTDFTLKISRVEAEDVGVYYCAQNLELPYTFGQGTKLEIK
– | – | – | – | – | – | 200 pM | – | 0.00012 s⁻¹ | humanized 1B11 antibody variant 13 (h2L/h2H) (antibody, V domains shown, variable domains only; also called clone 13) VH: QVQLVQSGAEVKKPGASVKVSCKASGYTFPIYTMHWIRQAPGQGLEWIGYINPSIGYANYNQKFRDRATLTADTSTSTAYMELSSLRSEDTAVYYCARGGYGDSLFAYWGQGTLVTVSS VL: DIVMTQSPLSLPVTPGEPASISCRSSKSLLHSNGITYLYWYLQKPGQSPQLLIYQMSNLASGVPDRFSSSGSGTDFTLKISRVEAEDVGVYYCAQNLELPYTFGQGTKLEIK
– | – | – | – | – | – | 160 pM | – | 0.00015 s⁻¹ | humanized 1B11 antibody variant 10 (h1L/h4H) (antibody, V domains shown, variable domains only; also called clone 10) VH: QVHLVQSGAEVKKPGASVKVSCKASGYTFPIYTMHWIKQAPGQGLEWIGYINPSIGYANYNQKFRDKATLTADKSTSTAYMELSSLRSEDTAVYYCARGGYGDSLFAYWGQGTLVTVSS VL: DIVMTQSPLSLPVTPGEPASISCRSSKSLLHSNGITYLYWYLQKPGQSPQLLIYQMSNLASGVPDRFSGSGSGTDFTLKISRVEAEDVGVYYCAQNLELPYTFGQGTKLEIK
– | – | – | – | – | – | 150 pM | – | 0.00013 s⁻¹ | humanized 1B11 antibody variant 14 (h2L/h3H) (antibody, V domains shown, variable domains only; also called clone 14) VH: QVQLVQSGAEVKKPGASVKVSCKASGYTFPIYTMHWIKQAPGQGLEWIGYINPSIGYANYNQKFRDRATLTADKSTSTAYMELSSLRSEDTAVYYCARGGYGDSLFAYWGQGTLVTVSS VL: DIVMTQSPLSLPVTPGEPASISCRSSKSLLHSNGITYLYWYLQKPGQSPQLLIYQMSNLASGVPDRFSSSGSGTDFTLKISRVEAEDVGVYYCAQNLELPYTFGQGTKLEIK
